Among the data in ChEMBL document CHEMBL1150982, “Formation of the Michaelis complex without involvement of the prosthetic group dehydroalanine of histidine ammonialyase” (Bioorg Med Chem Lett, 1997) are Km and Vmax values, retold here.

Common to all, as to conditions: Pseudomonas putida
Compound in series [1]: NC(Cc1[nH]cnc1[N+](=O)[O-])C(=O)O
Kind of series: The kinetic constant with the compound as substrate of wild-type Pseudomonas ATCC 11299b was determined using L-hisdine as competitive inhibitor.

Substrate in series [2]: NC(Cc1[nH]cnc1[N+](=O)[O-])C(=O)O
The series is described as follows: (§1) The kinetic constant with the compound as substrate of S143A mutant enzyme was determined.

Substrate in series [3]: N[C@@H](Cc1c[nH]cn1)C(=O)O
Described as §1.

Substrate in series [4]: NC(Cc1[nH]cnc1[N+](=O)[O-])C(=O)O
Kind of series: (§2) The kinetic constant with the compound as substrate of S143G mutant enzyme was determined.

Substrate in series [5]: N[C@@H](Cc1c[nH]cn1)C(=O)O
The description is as §2.

Compound in series [6]: NC(Cc1[nH]cnc1[N+](=O)[O-])C(=O)O
Kind of series: The kinetic constant with the compound as substrate of HAL mutant S143G was determined using L-hisdine as competitive inhibitor.

Substrate in series [7]: NC(Cc1[nH]cnc1[N+](=O)[O-])C(=O)O
The series is described as follows: (§3) The kinetic constant with the compound as substrate of S143T mutant enzyme was determined.

Substrate in series [8]: N[C@@H](Cc1c[nH]cn1)C(=O)O
The series is described as §3.

Compound in series [9]: NC(Cc1[nH]cnc1[N+](=O)[O-])C(=O)O
Kind of series: The kinetic constant with the compound as substrate of recombinant wild-type Escherichia coli BL21 was determined using L-hisdine as competitive inhibitor.

Substrate in series [10]: NC(Cc1[nH]cnc1[N+](=O)[O-])C(=O)O
The series is described as follows: (§4) The kinetic constant with the compound as substrate of recombinant wild-type HAL enzyme was determined.

Substrate in series [11]: N[C@@H](Cc1c[nH]cn1)C(=O)O
The description is as §4.

B1: Histidine ammonia-lyase (Homo sapiens), P42357 (protein)
chain: MPRYTVHVRGEWLAVPCQDAQLTVGWLGREAVRRYIKNKPDNGGFTSVDDAHFLVRRCKGLGLLDNEDRLEVALENNEFVEVVIEGDAMSPDFIPSQPEGVYLYSKYREPEKYIELDGDRLTTEDLVNLGKGRYKIKLTPTAEKRVQKSREVIDSIIKEKTVVYGITTGFGKFARTVIPINKLQELQVNLVRSHSSGVGKPLSPERCRMLLALRINVLAKGYSGISLETLKQVIEMFNASCLPYVPEKGTVGASGDLAPLSHLALGLVGEGKMWSPKSGWADAKYVLEAHGLKPVILKPKEGLALINGTQMITSLGCEAVERASAIARQADIVAALTLEVLKGTTKAFDTDIHALRPHRGQIEVAFRFRSLLDSDHHPSEIAESHRFCDRVQDAYTLRCCPQVHGVVNDTIAFVKNIITTELNSATDNPMVFANRGETVSGGNFHGEYPAKALDYLAIGIHELAAISERRIERLCNPSLSELPAFLVAEGGLNSGFMIAHCTAAALVSENKALCHPSSVDSLSTSAATEDHVSMGGWAARKALRVIEHVEQVLAIELLAACQGIEFLRPLKTTTPLEKVYDLVRSVVRPWIKDRFMAPDIEAAHRLLLEQKVWEVAAPYIEKYRMEHIPESRPLSPTAFSLQFLHKKSTKIPESEDL
One may read the Km as the concentration of substrate that gives half-maximal velocity. In the case of B1, the Km came to 4 mM in series [1]; 9.8 mM in series [2]; 7.5 mM in [3]; 4 mM in series [4]; 5.3 mM in series [5]; 5.3 mM in series [6]. Also, the Michaelis constant (Km) turned out to be 12.8 mM in series [7]; 3.1 mM in series [8]; 5.2 mM in series [9]; 7.7 mM in series [10]; 5.2 mM in series [11]. In addition, the Vmax is 0.87 IU mg-1 in series [2]; 0.0214 IU mg-1 in series [3]; 0.52 IU mg-1 in series [4]; 0.0047 IU mg-1 in [5]; 0.87 IU mg-1 in series [7]; 0.00047 IU mg-1 in [8]. The values for the Vmax in series [10] and in series [11] were 0.85 IU mg-1 and 25 IU mg-1, respectively.
